PMC5347741

Assay: immunohistochemistry, nude mouse xenograft
Conditions: glycan changed form; control: untransfected CAOV3 cells

B1: CD147: FUT1 transfection (CA-FUT1) (protein)
parent chain: MAAALFVLLGFALLGTHGASGAAGTVFTTVEDLGSKILLTCSLNDSATEVTGHRWLKGGVVLKEDALPGQKTEFKVDSDDQWGEYSCVFLPEPMGTANIQLHGPPRVKAVKSSEHINEGETAMLVCKSESVPPVTDWAWYKITDSEDKALMNGSESRFFVSSSQGRSELHIENLNMEADPGQYRCNGTSSKGSDQAIITLRVRSHLAALWPFLGIVAEVLVLVTIIFIYEKRRKPEDVLDDDDAGSAPLKSSGQHQNDKGKNVRQRNSS
Which expression_or_secretion does the source give for B1 here?
The expression_or_secretion was “increases”.
